Assay results from patent US20240285816A1, “FORMULATIONS FOR RADIOTHERAPY AND DIAGNOSTIC IMAGING” (priority 2016, published 2024).

Key:
[1] = Single dose preclinical toxicology study, intravenous injection; format: in vivo, Sprague Dawley rats
Experimental: A single dose preclinical toxicology study in Sprague Dawley rats was conducted to evaluate the potential toxicity of SARTATE when administered via intravenous injection. Testing was performed on solutions of SARTATE-copper-complex (SCC) and unlabeled SARTATE ligand (SL) at a 1:1 ratio. The study was conducted according to the requirements of OECD GLP Principles.
The test item was administered once to six groups of 10 rats (5/sex) at three doses of 50, 250 and 1000 μg/kg in the vehicle at a volume of 3 mL/kg. Two vehicle control groups of 10 rats (5/sex) were administered the vehicle only (10% ethanol in 0.9% sodium chloride and 0.056% gentisic acid) at the same volumetric dose.
Four groups of rats (one vehicle and three test item treated 50, 250 and 1000 μg/kg) from the main study were sacrificed on Day 2.
The following parameters were evaluated: mortality, daily clinical observations, weekly body weights, weekly food consumption, haematology, biochemistry, urinalysis, organ weights and gross necropsy on day of sacrifice. Extensive histopathology was performed on all animals.

[2] = HPLC analysis of radiochemical purity and stability of the formulation (gamma scintillation detector); format: physicochemical; conditions: post-manufacture
Source text: The formulations of a radioisotope-ligand complex referred to herein are stable in solution and under physiological conditions for a time. The stability of the formulation relates to the stability of the complex, where the radioisotope may undergo dissociation or the complex may undergo radiolysis. The stability of the complex can be measured by considering the radiochemical purity of the formulation. Radiochemical purity is defined as the amount of the radioisotope complexed by the sarcophagine ligand expressed as percentage of the total amount of the radioisotope present in the formulation. The radioisotope may be present in the formulation as a complex with the sarcophagine ligand, as a free radioisotope or as part of a radiolysis product.
The solution is then filtered through a solid phase extraction cartridge. […] HPLC analysis of the solution obtained can be seen in FIG. 1, showing over 97% radiochemical purity. Further HPLC analysis of the same product solution obtained over multiple time points can be seen in FIG. 2, showing that the radiochemical purity remains >90% for more than 11 hours.
The solution is then filtered through a solid phase extraction cartridge. […] HPLC analysis of the solution obtained can be seen in FIG. 3, showing over 98% radiochemical purity. […]

[3] = format: in vitro ADME; conditions: human, serum
[4] = in vivo; design: species or system Balb/c nude mice; conditions: Balb/c nude, mouse
[5] = test item SCC and SL 1:1, 2-day and 15-day experimental periods

CC(O)[C@H](NC(=O)[C@@H]1CSSC[C@H](NC(=O)[C@@H](Cc2ccccc2)NC(=O)CCCC(=O)NC23CNCCNCC(C)(CNCCNC2)CNCCNC3)C(=O)N[C@@H](Cc2ccc(O)cc2)C(=O)N[C@H](Cc2c[nH]c3ccccc23)C(=O)N[C@@H](CCCCN)C(=O)N[C@@H](C(C)O)C(=O)N1)C(=O)O (stereo partly drawn) [SARTATE, MeCOSar-D-Phe-Cys-Tyr-D-Trp-Lys-Thr-Cys-Thr-OH]
Human equivalent dose of the NOAEL at 14 days ([1]; both sexes, Sprague Dawley, in vivo, intravenous, from rat NOAEL of 1 mg/kg, read-out: Human Equivalent Dose (HED) of the NOAEL): 0.16 mg/kg
NOAEL at 14 days ([1]; both sexes, in vivo, iv, single i.v. dose, Sprague Dawley rat, read-out: No Observed Adverse Effect level (NOAEL)): 1 mg/kg
toxic effects ([1]; intravenously at 50, 250 and 1000 μg/kg): no toxic effects
safety margin of NOAEL over the maximum human dose ([1]; maximum total dose 0.02 mg per patient): 50 times
Human Equivalent Dose as total dose ([1]; patient with a weight of 70 kg): 11.2 mg
haematology, blood biochemistry and urine analysis ([1]; test item SCC and SL 1:1): no test item-related effects
organ weight and histopathology ([1]; test item SCC and SL 1:1): no evidence of any test item-related effect
body weight gains versus vehicle control [1, 5]: comparable body weights gains
clinical abnormalities [1, 5]: no clinical abnormalities related to treatment
feed intake versus control [1, 5]: similar
macroscopic abnormalities at necropsy ([1]; test item SCC and SL 1:1, all animals): No macroscopic abnormalities
mortality ([1]; test item SCC and SL at 1:1 ratio, 50, 250 and 1000 μg/kg i.v. single dose, treatment and recovery periods): No mortalities related to treatment

CC(O)[C@H](NC(=O)[C@@H]1CSSC[C@H](NC(=O)[C@@H](Cc2ccccc2)NC(=O)CCCC(=O)NC23CNCCNCC(C)(CNCCNC2)CNCCNC3)C(=O)N[C@@H](Cc2ccc(O)cc2)C(=O)N[C@H](Cc2c[nH]c3ccccc23)C(=O)N[C@@H](CCCCN)C(=O)N[C@@H](C(C)O)C(=O)N1)C(=O)O (stereo partly shown) [^64Cu-SARTATE, metal not drawn]
time for which stability of the formulation is observed [2]: up to 45 hours
time for which the complex remains intact (metabolic stability) [3]: up to 45 hours
tissue uptake at 2 h ([4]; blood): 0.4 ± 0.2 %ID/g
tissue uptake at 24 h ([4]; blood): 0.1 ± 0.02 %ID/g
tissue uptake at 24 h ([4]; kidney uptake): 10.1 ± 3.5 %ID/g
tissue uptake at 24 h ([4]; muscle accumulation): 0.1 ± 0.01 %ID/g
tissue uptake at 24 h ([4]; tumour uptake): 31.4 ± 14 %ID/g
tissue uptake at 2 h ([4]; uptake by the liver): 3.1 ± 1.3 %ID/g
tissue uptake at 24 h ([4]; uptake in lungs): 0.6 ± 0.3 %ID/g
tissue uptake at 24 h ([4]; uptake in spleen): 0.8 ± 0.2 %ID/g
